Experimental data reported in patent US20220315654A1.

Molecular target: recombinant cynomolgus monkey PD-L1 soluble protein (biotinylated) (cynomolgus monkey) (UniProt G7PSE7)
Experiment: sandwich ELISA: antibody captured on coated anti-human Fc, biotinylated recombinant cynomolgus PD-L1 titrated (x axis, nM), streptavidin-HRP/Amplex red fluorescence

Sequence of recombinant cynomolgus monkey PD-L1 soluble protein (biotinylated) (cynomolgus monkey) (G7PSE7 entry or part of it limits assumed): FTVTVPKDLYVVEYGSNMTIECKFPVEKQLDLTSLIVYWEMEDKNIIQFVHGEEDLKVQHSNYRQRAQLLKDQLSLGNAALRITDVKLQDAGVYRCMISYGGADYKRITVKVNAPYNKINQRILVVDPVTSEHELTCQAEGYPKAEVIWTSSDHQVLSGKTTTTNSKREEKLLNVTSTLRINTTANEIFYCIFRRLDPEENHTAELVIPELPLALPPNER
Sequence of Avelumab (antibody) (VH): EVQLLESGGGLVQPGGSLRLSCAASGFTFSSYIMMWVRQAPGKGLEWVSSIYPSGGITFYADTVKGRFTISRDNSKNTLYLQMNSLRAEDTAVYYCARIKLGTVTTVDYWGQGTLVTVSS
Sequence of Avelumab (antibody) (VL): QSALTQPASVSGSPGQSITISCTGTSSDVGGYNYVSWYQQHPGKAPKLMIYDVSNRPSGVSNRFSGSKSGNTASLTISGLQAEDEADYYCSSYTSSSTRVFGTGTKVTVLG

- EC50 (read off the curve): 0.05 nM
Substance: Avelumab (antibody)
